test system: All antibodies according to the invention, which were tested (Example 4)

Sequence of recombinant catalytic domain of human MMP8 (chain, as listed by the source): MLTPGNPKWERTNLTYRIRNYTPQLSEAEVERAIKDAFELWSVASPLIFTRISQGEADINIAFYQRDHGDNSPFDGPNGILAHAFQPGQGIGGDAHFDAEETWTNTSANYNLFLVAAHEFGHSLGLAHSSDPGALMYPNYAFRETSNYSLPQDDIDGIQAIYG
Sequence of recombinant catalytic domain of human MMP3 (chain, as listed by the source): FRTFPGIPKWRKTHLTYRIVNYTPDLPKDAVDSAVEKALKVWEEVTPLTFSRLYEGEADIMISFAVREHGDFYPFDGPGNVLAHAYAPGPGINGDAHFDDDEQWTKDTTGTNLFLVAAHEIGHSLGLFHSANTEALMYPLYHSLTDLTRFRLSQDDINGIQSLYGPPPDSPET
Sequence of recombinant catalytic domain of human MMP19 (chain, as listed by the source): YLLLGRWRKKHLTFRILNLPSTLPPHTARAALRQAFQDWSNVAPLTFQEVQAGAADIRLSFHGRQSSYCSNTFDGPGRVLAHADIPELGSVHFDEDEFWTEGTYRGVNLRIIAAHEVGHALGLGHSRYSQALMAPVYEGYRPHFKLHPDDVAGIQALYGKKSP
Sequence of recombinant catalytic domain of human MMP2 (chain, as listed by the source): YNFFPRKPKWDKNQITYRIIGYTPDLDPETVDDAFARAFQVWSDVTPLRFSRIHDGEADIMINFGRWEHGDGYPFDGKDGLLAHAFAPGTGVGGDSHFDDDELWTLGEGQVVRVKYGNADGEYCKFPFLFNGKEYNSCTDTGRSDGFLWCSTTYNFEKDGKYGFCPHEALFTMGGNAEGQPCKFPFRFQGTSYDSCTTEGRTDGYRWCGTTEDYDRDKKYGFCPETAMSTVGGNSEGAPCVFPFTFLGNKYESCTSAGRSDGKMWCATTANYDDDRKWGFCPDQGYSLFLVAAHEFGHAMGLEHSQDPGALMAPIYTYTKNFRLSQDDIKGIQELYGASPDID

| Substance | cleavage of fluorogenic peptide OmniMMP RED by MMP catalytic domain, antibody at 100 nM |
| --- | --- |
| recombinant catalytic domain of human MMP13 | had no significant effect on the catalytic activity of the eight other human MMPs tested |
| recombinant catalytic domain of human MMP19 | had no significant effect on the catalytic activity of the eight other human MMPs tested |
| recombinant catalytic domain of human MMP8 | had no significant effect on the catalytic activity of the eight other human MMPs tested |
| recombinant catalytic domain of human MMP2 | had no significant effect on the catalytic activity of the eight other human MMPs tested |
| recombinant catalytic domain of human MMP3 | had no significant effect on the catalytic activity of the eight other human MMPs tested |
